Assay results from the DeepSol protein solubility set.

Assay: soluble on expression in E. coli; label from the status in PepcDB or PDB records
For “GPGSMLLERQQLVQALQLSYHCSAACATSTVNSYYPDEEKCRATVQGKMTAPFVLAVGMVPKQREYVDSLRDDLAVAFQHFPYLNGTAKPPDKEEQKGCAKAVASGERGRNGRASSPASIDWAGVRARLLSPKKVPLWYMHTELVFPGDTHDVRIYENAYQSLIVKEGFSYVIGCYASGDGVVPALDYVNARLCGESVQSLAQRIGFDDDVVEALEGLEAEVPTRVYTRVNAFGNNPATSRSSRQDKGHAQQVLKEAGLAYVRSYVTTRADEAVAKVEDGTLLLPVVVKPNSGAGSEFVTLCYTVDDIRVAFSMVEGVRTSQGTDAAQLVVEEYIEGPEYVVNTVSYQGVHVVTDVWESWKYPEPVVTTGLTRSAEEALRAAGIKRQKQRKISILYDRQTLITNLADLPATHSARRIVEYTLKCLDALGLENGCGHSEVRLDTRKAARELRRHEQRRPKTNSPLGKVKDEHLDEGEPILIELNSRMQGDIPRSTDVIGYDQYSLLVYISEAVNVFGAATAASTALPFRVDSSRPQRVGEIPWPPVPRLYRARPSTGLPLATTVLFLATEEECILNGVALRTLTELGTFQRFTRTIFKPNQPGFVTPLRHTVDLFSSPTSCVMQGPAAAVKADCAAIRSMESAALCSAAKAALFKLTSTIHETERLRENARIIDGRLHAMTEAYRRASAQAGSATDEVADDGREKDEQGTENDCCSSQHDLEALRRSISSLQSELTWVTNNLAADDRQVQLLRTEFAKALASQKPAPLYINYQDFSMMKAAGVGNELAVL”, the “soluble on expression in E. coli” value was “not soluble”.
For “GPGSMLRLSASRRSAQNILHDIQAAVESRSIMATSSFAQRRSFLVALSEELHRNSEHIIHANRRDCDLFGRQQQQRGTPSVTIPPTLPSTSAATSLQPSSSLHGGPAGYPPFLGRPGHRVGDAQGISVAAENPATATPAPNAAEGSGASSPRRQSSLDYVAGASPVGSPDPNGAGGAAAGGRAAASPAGAGPALGETAAGSRATSTSGTAAPVSPSRWAARASSASLQLVPTAVSGHATRTEAGGGGGHLLITPDNHFLISPLRLDKLHTTIEYLLCQPDPIAIPPSCWLHDSAEGDSGAAANSLREQGSLGAAPGHNSPPPPSAAGSHAGCGRCTRRTDRLEVYELSVPLGMVGILSRFRPRISIDTVAMGLFAGNTVLLDGGVSLYNTNMALMSSVRRALTTAGLSPSAVVCVESYDAAHRSTSEWLQLSDCVDLAVVCGPPKLYQFASRYSTIPLMRATGQFSSVYVDQSASFEVALEVILNSKFQKLGAANAVTTVIVHSDFPRYTELVLALAAEGAVLLGDVTAQERVPDCVLELASEEEYQGLSQYGLRDAARTLCLKTVDSLAQALFFIESFGSKQSDCIVATDLEVCATYCRHVDTAVALVNASTRLSSGVPLGCGVDFAISTSKTHCRGPLTVEMMTTRKLVARSLSAHHGALR”, the “soluble on expression in E. coli” value was “not soluble”.
With “GPGSMLRWQMQPVRTSVRNFIASGFPSKKLRYARLVDVEECASRPQFQKLLQSYLSDFFAKSHENGSTGSSPWFTAVPPSLRNSVEETVNYLGMLVAIDFRHWGEDPPDATPTGSRVENICGFYAELPEGSAETSGSVSYGGKRLIRGSMAMVHLLCRAVEVYHLNWHCPQFLQQFATTEDAMEALERCFLGYREDGHTSMWMPAARERVELLLSLSRSLVEKDTSFFKMLCLSEGYLYHPIFPHLGFVEMLVELHPRYYDVCVLRGEVGGGKDSDQGDEIVIPMLKLAQLTVMAIEEAVSAMDTVAANTPNVTEAPFPFSGAHGVFKDKHHLTVCCDYQLPKALRSLGLVEYDSYLASLVDTGVLLAAGGVEECCIRVAALVASDLLLDYLRSSCACTTGREWRPESTSRVWDAPALDCMLWWIGRHYVDSAVKHHLCRTIMY” the “soluble on expression in E. coli” value was “not soluble”.
For “GPGSMLTGALRLSSHRVQDFIVTTCDKAFMLSSRTRLDKKTVETILLAGYSRIPVYLNDNRRHILGTLIVQSLVILCFTNPNKPPRAGEYPLLETLRLPASTTLYNSYLAFQKNSSNMAVVYDNCGVMVGLWTLTDLLCTLYNTSPAHEGSNTHRQELMVTLLESMKAMNAARRKAQGNVNSAIESEEFFVGGRKK”, the “soluble on expression in E. coli” value was “not soluble”.
In the case of “GPGSMMMQRSQKMLLDPASFIERPPRNTLFNIVPQGHEYVVERLGRYHRTLDSGWWVVVPFIDKIRYNYNVKEQGIEIPNQSAITSDNVMVEIDGVLFLKIVDSCKASYNIENPVFNLINLAQTTMRSEIGRMSLDSLFRERASLNQSTVEVLRREANEWGIECKRYEIRDIVVSELVRRSMDLQAEAERKKRKLILESEGESTATINRANGMKIAQQCVADAEKYTAERQSEGAAAAIRVKAAAVSDNISIVSDAIEKAK”, the “soluble on expression in E. coli” value is reported as “not soluble”.
For “GPGSMMSLPVEAVKEFLLKLQDDICHAIEAEDEQATFMEDKWTREGGGGGRTRVIANGAVIEKGGVNFSHVYGKGLPGSSTERHPDMAGCNYQAMGVSLVIHPKNPHVPTSHANVRLFVAEKEGKEPVWWFGGGFDLTPYYAVEEDCYYFHHVAQELCRPFGADVYERFKAWCDEYFFIPHRNEARGIGGLFFDDLNEWPFEKCFAFMQAVGKGFIDAYIPIVNRRKNTPYTEQQVEFQEFRRGRYAEFNLVIDRGTKFGLQSGGRTESILMSLPPRARWGYNWHPEPGTPEARLTEYFLTKKQWV”, the “soluble on expression in E. coli” value was “soluble”.
For “GPGSMNKSAKDTANPLFPATAIATIDVRAIVANYRTLAQHVAPTECSAVVKANAYGLGAHKIAPALYQAGCRTFFVAQIEEALQLKAVLPENVMIALLNGFPHKAEEFVAQSGIIPLLNSWSTIEDWQTLCQKKNKKFPAIIQVDTNMSRLGLDKKELQKLIKNPTIFEKAEIKYILSHLANGEDASHSSNNKQLAAFKRVLAQLPTCKVSFANSGGIFLGSDFYFDLVRPGIALYGVDPHGKHPTPLKAVVKVEAQVLQSRFIDAGIPVGYRESFMTRRPSTLATISIGYADGWPRILSNKGTVYFNGHKLPIVGHISMDSIIVDATDLDKKPQRGDWVELIGPHQPLEKVSTDTNTIPHEILTSLGKRYKRIYI”, the “soluble on expression in E. coli” value was “soluble”.
In the case of “GPGSMNNDKSEFYITGMTAGKLPMNNQQMVGYQRRMKIQVNKLMTEKQMTRMDAAAQGNTNTFEPFARERRRATAHVEQYPNIGHSPSGDDATTPKDVIPMLLIKKQLREFGRGRLRMPFTDTLSANVEKFTTPVGQTQVTGQPEILVTEKKLSAEGI”, the “soluble on expression in E. coli” value is reported as “not soluble”.
For “GPGSMNNRHSGSEKTPATQKKDSLAPSATNADITKVKICSGHTRPICHINYSNIIDGTFWLVTSCHDAKPMLRNGETGDWVGTFEGHKGAVYCSVFNEDATRLVTGSGDYSSMVWNAVTGDKLHTWSHPKYIKSCDWCGNKIATGCVDGLVRIFDAQAYDANPVCFDSTEKVNQVKATYFIDHTTMVTACENTIMKWDLRDTSLPYLRKEIPGLNFLEYTHSNSIVAAHEKSISFIDTTSLEIKSSFTTSDDIECASLSPNGQNVAAGSKLKAKEFTVDGTELESHRGHHGPIFHIRWAPDGKSFTSGAEDGMARIWPSHDIIETYDNEN”, the “soluble on expression in E. coli” value was “not soluble”.
For “GPGSMPAINREELDRRVEQIYDQVVAWRRYIHENPDLSFEEQPTAAYIKGELQKMDAEGRWLHISQPESNCVVADLKGGGGDGPIIALRADIDALPVEELTDVPFASKKQGVMHACGHDTHAAMLLGATKLLLEDAGRIKGTVRLLFQPAEEVPPGGAQMMIEKGCMEGVAMVFAEHIIPMKEGPTGTVLVKRGPFLSSSDTLHVEIIGRGGHASMPESSIDPIAIACLAVTALQQVVSRRMPPSKCPILTITTIASSSDSYNVIPDRVTLKGTLRTQDREVRENAKKAVAEVLHGICGSYGAMCSLNWLPGYDVTVNTDSAYDVGMRVFAQVLPSKDQVVVLSACMSPSEDFSEFAKVAPANYVGIGCYNPGKGCTAVNHNAKFCVDEEAMKVGVKVHYGTIHELLMQ”, the “soluble on expression in E. coli” value was “not soluble”.
In the case of “GPGSMPAYSEVKGTCGTPVLDQLIGYYVNIQSRKMYYKDFLRIEHQAVRWAFADIRKNSEALAHGLLQTGVRPGDRVLAIQPCNCETFVLQLSCAKIGALLCIVPQDTISADKLRFYLNEFQPRHLVAREWINVPEMKQGELVERNMHFWDTIYNVIPELGLSYPGQKFQWVHSQEFYYLKKIIITDHNMNLLGVTPMRKMLVWGPFSYYEQRLRRLSALLHPDDPVLALEDPNPAMEDKLHITYSHRNCVNAGFLFGQLMQLKAETRFGVMPNHHTDPIGAIIAPYAALTSGAVLVHIHSDMFTDDHAINGIEKLCVEEVETLVGRKADFDLILKHAGNFDADQFEHLRSVVIFEDGIEAPVSEEYLNKLSKALSLDDVYVFRGPIEASYMLTWRTLKKGSQGMVPHVEAKVVGDRGTSDAKVLVAGTRGNLRLKGPHVTAGYYNNAGLMTELIDEHGFASTSREAMIDGKDNITLMSAQTY”, the “soluble on expression in E. coli” value is reported as “not soluble”.
For “GPGSMPVANEASSFNVLYALNKCNPKRRRWMNGWLYVNFDRATLVDGISRKAVGVVSGTGLLPNKVFKMMVEADNGAAWEMGTEVVIGQYITQIEGTTRLHLIPYTLFSGVDCIDDNAAEEVSSVELAGSSMTSRVVNVTAGFSATRADAPLSRRKTTEQLISELRGAYPQIFI”, the “soluble on expression in E. coli” value was “not soluble”.
With “GPGSMQEEVTEHKYNIVFSRDPVPSGLSEEQYYPMRLSNGSAYLCVLPDITVEEKKTLQAEDSELDVPLSLEHVAVVNRALKNMCYTMEESWWTYRLCWGSGVEQFHRSAVAGDSKSNAPKQMKEDPHFVLGVAPPADVLDLRYGVNTKGLRYIYTIYSDGLTCDLTQLPRTTEVQLYCAREGEGNSPTMRVREAEVCRYIVSLTAKEVCLLGLKEIQQRYGVITCHETKPTNTVDWNNKQQG” the “soluble on expression in E. coli” value was “not soluble”.
For “GPGSMQFTVEQIRSVRNNYLEPPYPGFSLDEVVRRRRLTQTKLVRGENAWVAKGTAQTTEEWVQRLLHGTLNKLTEENKDIMIDKLLTKELFATEDIMNMVVNIIFKKALDEPENSKLYAGVCHSLALYEAKVLRDGHKGERPQSQLRDAIISTAQHEFRTLSKELSKMEDKSEEELEYERSNVMRRKRSNMRFIGELYLCTALTHSTMFTVMDLTMRCSDKTGFPSSENIELLAALLNTIGDRLDKNHKKTLDPYFTSLENFNKKSDCPYPPRIRFKIMDLLDLRKRGWGLKPKPVKAALPPSHGKDKKYATAPPPKKGGRDQGSAAAASKSWRDAATTKTGTAAAPAPSADKGLNGRGTSSAAPAANTAALSSSSASTAAATAPAGASFRDEASPQVPLVKFELRVASMFQEWVADRTNDVILHWVDQFNTCDRFFESESELCVAVAQEVIHSACTTTRKDAQREAFSFLVVGLYMIDTEVFDGFASALASAIEDGLLEDVPKFGERFMSMLRLTSTEQETRADVYFDAANVLRLTYNRLESPDDSAVDTLMSFWDRVPLPSTDEENMIRMDLDVVYSLCNPEGVQDGLEKLLSRIIHSMLQMQLMDAEVLDEFLCLDVEDGLCAKVIADYKERFPK”, the “soluble on expression in E. coli” value was “soluble”.
In the case of “GPGSMQPRKTVKKVDVEPSPEEDAELLPHLKVSAKWSERAANNGKSLSQVQFLLGALGKQLEDCNKELASVYANADLLSSLRITEYRQRNTPGGLLTPTRKARTKRNASTRPVARQQLDENSTEALIAAMDEKKRARVTAALIAFFKRDMQEQNSPAYQNASTPVPQGANHSSTRTSQTLGRIPSANSHTMLCESNKGNQPSCSNGNELPTLLSETQQQQLRRHRDIPPELWDEMAKLRLRRLSLEEKIGSLLSNINAQTERFGLLMEVQGVNSYSTESVNRAIEMIRQKRA”, the “soluble on expression in E. coli” value is reported as “soluble”.
For “GPGSMQQSLIPGHNNNRHLTYDEVENNIGGLPVTDNRIQDLFDSLDVDHSGTVSVEVVKKFYMGLEHYGVDLSDKELDEMVRKYAATHDESLSYEEFACFVLSLAQW”, the “soluble on expression in E. coli” value was “soluble”.
In the case of “GPGSMQRGFCRVGTVTVSQAQKRAAELINSSDGFCSNVMRTVQFTPTGVKACDGESMGFSWRANQRALNGFRSTHGGALAILADTFTQIHLGAARPAAEFRSVSFEINYLEAIPENAECTCITRIVGDGESDIHHVEYSFQDERRRKVFSRGTHVLSCTK”, the “soluble on expression in E. coli” value is reported as “soluble”.
In the case of “GPGSMRNLVREGITPPVLVFVQSVERSKELYEEIRMEGLHMAIMHAKMTVEQREETVLQFRLGKIWVLVTTELLARGIDFKNVGTVINFDFPATVDSYIHRVGRTGRAGKEGTAITFFTEDDKERLPPIAKVMQDSGNAVEDWILGIKVDRSTRRRLERTTPQRTIVSTRKRMLVAQQRVQRQYRRLEAEKAAKQASKRSKGCGDCDRDDGDDSTDDA”, the “soluble on expression in E. coli” value is reported as “soluble”.
